The values that follow come from US20060287509A1 (University of California, published 2006).

Numbering of substitutions follows the chain as printed.

In assay [1] the target is T1, c-erbB-2 ECD with a Ser-Gly-His6 C-terminal fusion (UniProt P04626 23-652).
T1 construct: extracellular domain; expressed from CHO cells, IMAC purified; coupled to a CM5 chip, adsorbed to polystyrene, or biotinylated and captured on avidin; also called c-erbB-2 extracellular domain; biotinylated c-erbB-2 ECD
Put plainly: from SPR (BIAcore) Kd values.

The target in assay [2] is T2, c-erbB-2 expressed on cells (SK-OV-3, SK-BR-3) (UniProt P04626 23-1255, limits assumed).
T2 construct: whole, on cells; also called native c-erbB-2 expressed on cells
Put plainly: Scatchard after radioiodination, SK-OV-3 cells.

Assay [3] addresses T1, c-erbB-2 ECD with a Ser-Gly-His6 …. The experiment in a line: competition ELISA: sFv preincubated with soluble ECD (0-100 nM), free sFv read on immobilized ECD. For orientation: An ELISA detects its analyte on a solid surface through an enzyme-linked reagent.
Assay [4] deals with c-erbB-2 ECD with a Ser-Gly-His6 C-terminal fusion (UniProt P04626). Put plainly: from SPR (BIAcore) Kd values. A general note: SPR reads the build-up and loss of mass on a sensor chip optically.
Assay [5] shares this target. The experiment in a line: SPR (BIAcore).
In assay [6] the target is T1, c-erbB-2 ECD with a Ser-Gly-His6 …. The experiment in a line: SPR (BIAcore).
For assay [7] the target is unchanged. The experiment in a line: SPR (BIAcore). This is another data set of the same source.

One may read the Kd as a measure of binding affinity in units of concentration. Low readings indicate tighter binding, high ones weaker binding. A word on the IC50: it is the concentration that gives 50% inhibition. What is called koff is a measure of how fast the partners let go of each other. A higher koff goes with a short-lived complex. For orientation: kon means the second-order rate constant of association. Low values mean slower complex formation, high ones faster complex formation.

B1: C6-9L1 (scFv)
chain: QVQLLQSGAELKKPGESLKISCKGSGYSFTSYWIAWVRQMPGKGLEYMGLIYPGDSDTKYSPSFQGQVTISVDKSVSTAYLQWSSLKPSDSAVYFCARHDVGYCSSSNCAKWPEYFQHWGQGTLVTVSSGGGGSGGGGSGGGGSQSVLTQPPSVSGAPGQWVTISCSGSSSNIGNNYVSWYQQLPGTAPKLLIYDNNKRPSGVPDRFSGSQSGTSASLAISGLRSEDEADYYCASWDYTLSGWVFGGGTKLTVLG
The molecule B1 returned a ΔΔGI in assay [1] of 0.42 kcal/mol.

B2: C6-12L1 (scFv)
chain: B1 chain with S235A, T239S, L240R
As to B2, in assay [1], the ΔΔGI was -0.18 kcal/mol.

B3: C6VLE (scFv)
chain: QVQLLQSGAELKKPGESLKISCKGSGYSFTSYWIAWVRQMPGKGLEYMGLIYPGDSDTKYSPSFQGQVTISVDKSVSTAYLQWSSLKPSDSAVYFCARHDVGYCSSSNCAKWPEYFQHWGQGTLVTVSSGGGGSGGGGSGGGGSQSVLTQPPSVSAAAGQKVTISCSGSSSSIGRNYVSWNQQLPGTAPKLLIWRNNQRPSGVPDRFSGSKSGTSASLAISGVRSEDEADYYCASWDNSLSGWVFGGGTKLTVLG
In turn, B3 came in with a Kd in assay [2] of 71 nM. The same molecule gave an IC50 in assay [3] of 2.8 nM.

B4: C6-B1L1 (scFv, part only; not given: linker and VL, part only)
scFv, part: QVQLLQSGAELKKPGSLKISCKGSGYSFTSWIAWVRQMPGKGLEYGLIYPGDSDTKYSPSQGQVTISVDKSVSTALQWSSLKPSDSAVYFARHDVGYCHDVGYCTDRTCAKWPYFQHTVS
In assay [4], B4 had a ΔΔGI of 0.43 kcal/mol. Moreover, in assay [5], the Kd worked out at 0.63 nM, the Kd (C6.5)/Kd (mut) came to 25, the Kd (parent)/Kd (mut) worked out at 0.19 and the off-rate (koff) worked out at 0.00024 s⁻¹. Besides, in assay [5], the kon was found to be 380000 M⁻¹ s⁻¹.

B5: C6VLD (scFv)
chain: QVQLLQSGAELKKPGESLKISCKGSGYSFTSYWIAWVRQMPGKGLEYMGLIYPGDSDTKYSPSFQGQVTISVDKSVSTAYLQWSSLKPSDSAVYFCARHDVGYCSSSNCAKWPEYFQHWGQGTLVTVSSGGGGSGGGGSGGGGSQSVLTQPPSVSAAPGQKVTISCSGTNSNIGNNYVSWYQQLPGTAPKLLIYTNDQRPSGVPDRFSGSKSGTSASLAISGLQSEDEADYYCAAWDDSLNGWMFGGGTKLTVLG
As for B5, the Kd in assay [2] was found to be 26 nM. In assay [3], this molecule yielded an IC50 of 5.8 nM.

B6: C6-B1D6 (scFv)
scFv: QVQLLQSGAELKKPGESLKISCKGSGYSFTSYWIAWVRQMPGKGLEYMGLIYPGDSDTKYSPSFQGQVTISVDKSVSTAYLQWSSLKPSDSAVYFCARHDVGYCTDRTCAKWPEWMYPWGQGTLVTVSSGGGGSGGGGSGGGGSQSVLTQPPSVSAAPGQKVTISCSGSSSNIGNNYVSWYQQLPGTAPKLLIYGHTNRPAGVPDRFSGSKSGTSASLAISGFRSEDEADYYCASWDYTLSGWVFGGGTKLTVLG
notes: C6MH3-B1 with the library D residues of C6MH3-D6
Regarding B6, the ΔΔGI in assay [1] was -0.16 kcal/mol.

B7: C6-B1D3 (scFv)
chain: B6 scFv with M116L, Y117D, P118N
For the molecule B7, the “fold lower Kd than wt C6.5” value in assay [6] is 1230 fold. For the same molecule, in assay [1], the ΔΔGI was -0.53 kcal/mol.

B8: C6-B1D1 (scFv)
chain: B6 scFv with M116L, Y117H, P118V
In assay [1], B8 returned a ΔΔGI of -0.61 kcal/mol.

B9: C6-B1D2 (scFv)
chain: B6 scFv with M116L, Y117G, P118V
Turning to B9, the ΔΔGI in assay [1] is -0.07 kcal/mol.

B10: C6-B1D5 (scFv)
chain: B6 scFv with Y117Q, P118M
B10 came in with a ΔΔGI in assay [1] of -0.4 kcal/mol.

B11: C6ML3-19 (scFv)
scFv: QVQLLQSGAELKKPGESLKISCKGSGYSFTSYWIAWVRQMPGKGLEYMGLIYPGDSDTKYSPSFQGQVTISVDKSVSTAYLQWSSLKPSDSAVYFCARHDVGYCSSSNCAKWPEYFQHWGQGTLVTVSSGGGGSGGGGSGGGGSQSVLTQPPSVSAAPGQKVTISCSGSSSNIGNNYVSWYQQLPGTAPKLLIYGHTNRPAGVPDRFSGSKSGTSASLAISGFRSEDEADYYCASWDRPLWGWVFGGGTKLTVLG
notes: C6.5 with this VL CDR3; C-terminal myc and His6 tags
For B11, the on-rate (kon) in assay [7] was determined as 670000 M⁻¹ s⁻¹.

B12: C6ML3-11 (scFv)
scFv: B11 scFv with S235A, R238Y, P239A
notes: as for B11
In assay [7], B12 registered a kon of 610000 M⁻¹ s⁻¹.

B13: C6ML3-14 (scFv)
scFv: B11 scFv with S235A, R238D
notes: as for B11
Consider B13, for which the kon in assay [7] came out at 770000 M⁻¹ s⁻¹. The kon values of the last two molecules are within 1.5-fold of each other.

B14: C6-B47D5 (scFv)
scFv: B6 scFv with T108S, Y117Q, P118M
notes: C6MH3-B47 with the library D residues of C6MH3-D5
On to B14, for which, in assay [1], the ΔΔGI was -0.01 kcal/mol.

B15: C6ML3-10 (scFv)
scFv: B11 scFv with S235A, D237E, R238D, L240W, W241Y
notes: as for B11
Molecule B15 displayed a kon in assay [7] of 610000 M⁻¹ s⁻¹.

B16: C6ML3-7 (scFv)
scFv: B11 scFv with S235A, R238Y, P239A, L240V, W241S
notes: as for B11
In the case of B16, in assay [7], the kon came out at 650000 M⁻¹ s⁻¹. Further, the “fold increase in affinity vs wild-type sFv (C6.5)” value in assay [6] was 6 fold.

B17: C6ML3-15 (scFv)
scFv: B11 scFv with S235A
notes: as for B11
For the molecule B17, in assay [7], the koff turned out to be 0.0013 s⁻¹ and the kon was 590000 M⁻¹ s⁻¹.

B18: C6-B47D6 (scFv)
scFv: B6 scFv with T108S
notes: C6MH3-B47 with the library D residues of C6MH3-D6
B18 came in with a ΔΔGI in assay [1] of 0.17 kcal/mol.

B19: C6-B47D3 (scFv)
scFv: B6 scFv with T108S, M116L, Y117D, P118N
notes: C6MH3-B47 with the library D residues of C6MH3-D3
With B19, the ΔΔGI in assay [1] was determined as 0.29 kcal/mol.

B20: C6-B47D1 (scFv)
scFv: B6 scFv with T108S, M116L, Y117H, P118V
notes: C6MH3-B47 with the library D residues of C6MH3-D1
Turning to B20, the ΔΔGI in assay [1] is -0.11 kcal/mol.

B21: C6ML3-23 (scFv)
scFv: B11 scFv with R238H, P239S
notes: as for B11
In assay [7], B21 returned an association rate constant (kon) of 670000 M⁻¹ s⁻¹.

B22: C6ML3-3 (scFv)
scFv: B11 scFv with S235T, R238Y, P239A, W241S
notes: as for B11
In assay [7], B22 returned a kon of 460000 M⁻¹ s⁻¹.

B23: C6ML3-12 (scFv)
scFv: B11 scFv with S235A, R238Y, P239S, L240R, W241S
notes: as for B11
B23 had a kon in assay [7] of 450000 M⁻¹ s⁻¹.

B24: C6-B47D2 (scFv)
scFv: B6 scFv with T108S, M116L, Y117G, P118V
notes: C6MH3-B47 with the library D residues of C6MH3-D2
Consider B24, for which, in assay [1], the ΔΔGI is 0.62 kcal/mol.

B25: C6ML3-6 (scFv)
scFv: B11 scFv with R238Y, P239S, W241S
notes: as for B11
In turn, B25 yielded a kon in assay [7] of 590000 M⁻¹ s⁻¹.

B26: C6ML3-4 (scFv)
scFv: B11 scFv with D237E, R238Y, P239S
notes: as for B11
Turning to B26, the kon in assay [7] came to 400000 M⁻¹ s⁻¹. This kon and that of the molecule before are within 1.5-fold of each other.

B27: C6ML3-2 (scFv)
scFv: B11 scFv with S235A, R238H, P239S, W241S
notes: as for B11
In the case of B27, in assay [7], the kon is 710000 M⁻¹ s⁻¹. Compared with the last molecule, the kon is about 1.8-fold higher.

B28: C6ML3-29 (scFv)
scFv: B11 scFv with S235A, R238G, P239T
notes: as for B11
As to B28, the kon in assay [7] was determined as 1.29e+06 M⁻¹ s⁻¹.

B29: C6ML3-8 (scFv)
scFv: B11 scFv with S235A, R238H, P239L, L240R
notes: as for B11
The molecule B29 registered an on-rate (kon) in assay [7] of 650000 M⁻¹ s⁻¹.

B30: C6ML3-13 (scFv)
scFv: B11 scFv with S235A, R238A, P239T
notes: as for B11
As to B30, in assay [7], the kon is 870000 M⁻¹ s⁻¹.

B31: C6ML3-1 (scFv)
scFv: B11 scFv with S235A, R238Y, P239S
notes: as for B11
Consider B31, for which the kon in assay [7] was found to be 300000 M⁻¹ s⁻¹.

B32: C6VLF (scFv)
chain: QVQLLQSGAELKKPGESLKISCKGSGYSFTSYWIAWVRQMPGKGLEYMGLIYPGDSDTKYSPSFQGQVTISVDKSVSTAYLQWSSLKPSDSAVYFCARHDVGYCSSSNCAKWPEYFQHWGQGTLVTVSSGGGGSGGGGSGGGGSQSVLTQPPSMSAAPGQKVTISCSGSSSNIGNNYVSWYQQFPGTAPKLLIHDNNKRPSGIPDRISGSKSGTSASLAISGLQSDDEADYYCAAWDDSLNGWVFGGGTKLTVLG
B32: the equilibrium dissociation constant (Kd) in assay [2] came to 79 nM. In assay [3], this molecule yielded an IC50 of 7.5 nM.
